Laboratory results: patent US11433139B2, “Peptide vaccines against interleukin-31” (Zoetis Services LLC, priority 2018, dated 2022)
Where no end group is shown, it is not given here.

T1: canine IL-31 (Canis lupus familiaris, UniProt A0A8I3S3D1)
T1 construct: made in house; host or cells: CHO cells (CHROMOS ACE system)
T1 sequence (A0A8I3S3D1 24-159): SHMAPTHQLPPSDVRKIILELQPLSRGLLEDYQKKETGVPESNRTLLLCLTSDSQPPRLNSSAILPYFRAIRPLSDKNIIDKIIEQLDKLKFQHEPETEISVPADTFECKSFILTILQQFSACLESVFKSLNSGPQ

B1: Feline 11E12 1.2: felinized 11E12, FEL_11E12_VH1 paired with FEL_11E12_VL2 (antibody, V domains shown)
VH: QVLLVQSGAEVKKPGASVKIFCKASGYSFTYYDINWLRQAPEQGLEWMGWIFPGDGGTKYNETFKGRLTLTADTSTNTVYMELSSLRSADTAMYYCARGGTSVIRDAMDYWGQGALVTVSS
VL: EVVLTQSSAFLSRTLKEKATITCRASESVDNYGISFMHWYQQKPNQAPKLLVKRASNLESGAPSRFSGSGSGTDFTLTISSPEPEDAATYYCQQSNKDPLTFGQGT
B2: Feline 11E12 1.1 FW2: Fel_11E12_VH1 paired with Feline 11E12 VL1 carrying mouse FW2 (antibody, V domains shown)
VH: B1 VH
VL: EIQMTQSPSSLSASPGDRVTITCRASESVDNYGISFMHWYQQKPGQPPKLLIYRASNLESGVPSRFSGSGSGTDFTLTISSLEPEDAATYYCQQSNKDPLTFGQGT
B3: ZTS-927: felinized anti IL-31 15H05 mAb, FEL_15H05_VH1 with Feline_HC_AlleleA_wt, FEL-15H05-VL1_FW2 light chain (antibody, V domains shown)
VH: QVLLVQSGAEVRTPGASVKIFCKASGYSFTSYTIHWLRQAPAQGLEWMGNINPTSGYTENNQRFKDRLTLTADTSTNTAYMELSSLRSADTAMYYCARWGFKYDGEWSFDVWGAGTTVTVSS
VL: EIQMTQSPSSLSASPGDRVTITCRASQGISIWLSWYQQKPGNIPKVLINKASNLHIGVPSRFSGSGSGTDFTLTISSLEPEDAATYYCLQSQTYPLTFGGGTKLEIK
modifications: feline constant regions joined; Felinized variable heavy mAb sequence, from Mus musculus and Felis catus; Felinized variable light mAb sequence, from Mus musculus and Felis catus
B4: 15H05 mouse: canine chimera: mouse 15H05 variable regions on canine IgG constant regions (antibody)
heavy: QVQLQQSAAELARPGASVKMSCKTSGYTFTSYTIHWIKQRPGQGLEWIGNINPTSGYTENNQRFKDKTTLTVDRSSNTAYLQLHSLTSEDSAVYFCARWGFKYDGEWSFDVWGAGTTVTVSSASTTAPSVFPLAPSCGSTSGSTVALACLVSGYFPEPVTVSWNSGSLTSGVHTFPSVLQSSGLYSLSSMVTVPSSRWPSETFTCNVAHPASKTKVDKPVPKRENGRVPRPPDCPKCPAPEMLGGPSVFIFPPKPKDTLLIARTPEVTCVVVDLDPEDPEVQISWFVDGKQMQTAKTQPREEQFNGTYRVVSVLPIGHQDWLKGKQFTCKVNNKALPSPIERTISKARGQAHQPSVYVLPPSREELSKNTVSLTCLIKDFFPPDIDVEWQSNGQQEPESKYRTTPPQLDEDGSYFLYSKLSVDKSRWQRGDTFICAVMHEALHNHYTQESLSHSPGK
light: DIQMNQSPSSLSASLGDTITVTCRASQGISIWLSWYQQKPGNIPKVLINKASNLHIGVPPRFSGSGSGTHFTLTITSLQPEDIATYYCLQSQTYPLTFGGGTKLEINRNDAQPAVYLFQPSPDQLHTGSASVVCLLNSFYPKDINVKWKVDGVIQDTGIQESVTEQDKDSTYSLSSTLTMSSTEYLSHELYSCEITHKSLPSTLIKSFQRSEC

Legend:
mAb ZTS-361 = assay: Peptide block of mAb ZTS-361 inhibition of IL-31 mediated STAT3 phosphorylation in feline FCWF-4 macrophages; format: cell-based; conditions: for IC50, conjugated peptide: CRM197 conjugated, co-incubated 1 hour with 0.2 μM mAb ZTS-361, FCWF-4 cells
canine IL-31 [1] = assay: Affinity of anti-IL-31 antibodies by surface plasmon resonance (Biacore), canine IL-31 surface; format: binding; conditions: IL-31 conjugated to the surface (FIG. 2)
Procedure: (§1) The affinity with which candidate mAbs bind canine and feline IL-31 was determined using surface plasmon resonance (SPR) on a Biacore system (Biocore Life Sciences (GE Healthcare), Uppsala, Sweden). To avoid affinity differences associated with differential surface preparation that can occur when immobilizing antibodies to surfaces; a strategy was employed where IL-31 was directly conjugated to the surface. Immobilization was obtained by amine coupling 5 μg/mL IL-31 using N-hydroxysuccinimide (NHS)/1-Ethyl-3-(3-dimethylaminopropyl) carbodiimide (EDC) chemistry. Chips were quenched with ethanolamine and the affinity with which all candidate mAbs bound to the immobilized IL-31 was evaluated. All curves were fit to a 1:1 model. Affinity constants (KD) less than 1×10^−11M (1E-11 M) are below the lower limit of quantitation of detection for the instrument. Results for affinity measurements are described herein.

feline IL-31 [2] = assay: Inhibition of feline IL-31 induced pSTAT3 signaling in feline FCWF4 macrophage-like cells; format: cell-based; conditions: 0.2 μg/mL feline IL-31, pSTAT3, FCWF4 cells (FIG. 3)
Procedure: (§2) To identify candidates with inhibitory activity, antibodies were assessed for their ability to affect IL-31-mediated STAT3 phosphorylation in either a canine or feline cell-based assay. STAT3 phosphorylation was determined in canine DH-82 (ATCC® CRL-10389™) or feline FCWF4 macrophage-like cells (ATCC CRL-2787). DH82 and FCWF4 cells were primed with canine interferon gamma (R&D Systems, Minneapolis, Minn.) at 10 ng/mL for 24 hours or feline interferon gamma (R&D Systems, Minneapolis, Minn.) at 125 ng/mL for 96 hours, respectively, to increase receptor expression. Both cell types were serum starved for 2 hours prior to IL-31 and mAb treatment. Using two independent methods, all candidate mAbs were evaluated for their ability to inhibit either 1 μg/mL canine or 0.2 μg/mL feline IL-31 induced STAT3 phosphorylation. […] To ensure complex formation, a one hour co-incubation of mAb and IL-31 cytokine prior to cell stimulation was completed. IL-31 cell stimulation was carried out for five minutes. STAT3 phosphorylation was measured using AlphaLISA SureFire ULTRA™ technology (Perkin Elmer, Waltham, Mass.). In the case where antibody concentration and purity are unknown, hybridoma supernatants were qualitatively measured for their ability to inhibit STAT3 phosphorylation following a 1 hour co-incubation with […] IL-31. The potency of individual monoclonal antibodies defined by their ability to inhibit IL-31 mediated STAT3 phosphorylation in these assays was considered the key selection criteria for further advancement of select antibodies. The term potency refers to the IC50 value calculated from these assays and is the concentration of the antibody where signaling induced by IL-31 is reduced to one half its maximal value.

feline IL-31 [3] = assay: Affinity of anti-IL-31 antibodies by surface plasmon resonance (Biacore), feline IL-31 surface; format: binding; conditions: IL-31 conjugated to the surface (FIG. 2)
Procedure: as §1
Target sequence in this assay (as listed by the source): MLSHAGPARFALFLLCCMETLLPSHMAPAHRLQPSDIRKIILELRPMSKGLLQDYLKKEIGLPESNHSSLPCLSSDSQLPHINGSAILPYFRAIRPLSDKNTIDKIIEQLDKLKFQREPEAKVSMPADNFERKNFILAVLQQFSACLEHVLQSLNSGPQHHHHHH

feline IL-31 [4] = assay: Inhibition of feline IL-31 induced pSTAT3 signaling in canine DH-82 cells; format: cell-based; conditions: feline IL-31, pSTAT3, canine DH82 cells (FIG. 3)
Procedure: as §2
Target sequence in this assay (as listed by the source): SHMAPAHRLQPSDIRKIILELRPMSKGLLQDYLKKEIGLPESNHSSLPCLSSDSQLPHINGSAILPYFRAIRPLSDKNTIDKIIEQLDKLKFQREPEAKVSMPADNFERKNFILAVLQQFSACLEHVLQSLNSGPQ

canine IL-31 [5] = biological target: T1, canine IL-31; assay: Inhibition of canine IL-31 induced pSTAT3 signaling in canine DH-82 and feline FCWF4 cells; format: cell-based; conditions: canine IL-31; canine and feline cell types, cell type of the values not specified
Procedure: as §2

Sequence of mAb ZTS-361 (as listed by the source): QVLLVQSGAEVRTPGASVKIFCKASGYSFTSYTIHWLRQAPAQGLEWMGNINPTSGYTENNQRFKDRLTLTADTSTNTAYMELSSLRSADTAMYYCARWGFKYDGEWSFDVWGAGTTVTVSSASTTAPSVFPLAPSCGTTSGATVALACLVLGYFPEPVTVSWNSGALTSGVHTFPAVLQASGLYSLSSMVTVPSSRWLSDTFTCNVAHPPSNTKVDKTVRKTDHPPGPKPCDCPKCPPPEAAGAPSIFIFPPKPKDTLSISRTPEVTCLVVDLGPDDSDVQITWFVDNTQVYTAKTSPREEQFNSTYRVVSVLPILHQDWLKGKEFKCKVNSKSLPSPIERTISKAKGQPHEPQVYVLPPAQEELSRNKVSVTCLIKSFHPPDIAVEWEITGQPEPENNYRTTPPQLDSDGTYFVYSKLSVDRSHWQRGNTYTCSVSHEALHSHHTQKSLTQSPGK
Sequence of mAb ZTS-361 (as listed by the source): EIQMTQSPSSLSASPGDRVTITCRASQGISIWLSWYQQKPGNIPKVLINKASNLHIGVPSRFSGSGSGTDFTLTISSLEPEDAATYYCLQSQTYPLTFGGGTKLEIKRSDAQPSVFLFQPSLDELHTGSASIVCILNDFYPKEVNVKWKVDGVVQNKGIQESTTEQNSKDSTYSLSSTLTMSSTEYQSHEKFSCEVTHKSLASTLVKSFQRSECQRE

| Molecule | IC50, conjugated peptide (mAb ZTS-361) | affinity (KD) to feline IL-31 (feline IL-31 [3]) | potency (IC50) against feline IL-31 in canine DH82 cells (feline IL-31 [4]) | other results |
| --- | --- | --- | --- | --- |
| ZTS-564: constrained canine IL-31 15H05 mimotope, N-TEISVPADTFERKSFILT-C plus terminal Cysteines, mT2b linker | poor potency | – | – | – |
| constrained canine IL-31 15H05 mimotope, N-EISVPADTFERKSF-C plus N and C terminal Cysteines (CEISVPADTFERKSFC; cysteine pairing not given here; also: constrained, mode not given here) [ZTS-562] | 3.024 µg/mL | – | – | decline of potency following conjugation (mAb ZTS-361; conjugated vs unconjugated): approximately 3 fold |
| constrained canine IL-31 15H05 mimotope, N-TEISVPADTFERKSFILT-C plus N and C terminal Cysteines, mT2a linker [ZTS-561] | poor potency | – | – | – |
| B1 | – | total loss of binding | complete loss of cellular potency | affinity (KD) to canine IL-31 (canine IL-31 [1]): total loss of binding; potency (IC50) against feline IL-31 in feline FCWF4 cells (feline IL-31 [2]): complete loss of cellular potency |
| B2 | – | KD equivalent to that of the mouse and chimeric form | increased potency | affinity (KD) to canine IL-31 (canine IL-31 [1]): detrimental effect |
| B3 | – | highly consistent with that of the mouse and chimeric form | highly consistent with values derived from the chimeric and mouse form | potency (IC50) against feline IL-31 in feline FCWF4 cells (feline IL-31 [2]): highly consistent with values derived from the chimeric and mouse form; IC50 against canine IL-31 (canine IL-31 [5]): proportionally higher |
| B4 | – | – | 0.71 µg/mL | IC50 against canine IL-31 (canine IL-31 [5]): 12.49 µg/mL |
